± gives the standard deviation of the averaged measurements.
B1: library; a variant is named by its letters at N, in order (parent)
chain: GCUGUCACCGGUGUAUUACCCUAGUGGUCGACCGGUCUGAUGAGUCUNNNNNNAGACGAAACAGC

Columns and labels:
hypoxanthine [1] = variants of: B1; experiment: FACS-Seq fitted mean relative fluorescence mCherry/BFP without ligand (log10 relative fluorescence); ligand: hypoxanthine (xanthine aptamer); higher = higher reporter protein expression; conditions: HEK293T, ligand present: no
In short: (§1)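 Cells were sorted into 6 bins on the mCherry/BFP ratio after 48 h with or without ligand. These were enriched HEK293T cells transduced by lentivirus with a ribozyme-switch mCherry reporter plus an EF1α-BFP marker. Fluorescence was obtained by fitting a normal distribution to sequencing-derived bin counts. Counts came from MiSeq sequencing of PCR-amplified, barcoded genomic DNA, binned by log10(mCherry/BFP), with means scaled to five spiked-in control ribozymes.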

hypoxanthine [2] = variants of: B1; experiment: normalized RNA/DNA level with ligand (relative to sTRSVctl = 100) (log10 (% of sTRSVctl)); ligand: hypoxanthine (xanthine aptamer); higher = less ribozyme self-cleavage, higher mRNA level; conditions: ligand concentration (+) RNA-Seq: 5 mM, HEK293T, reporter: mCherry (pCS4076), ligand present: yes
In short: (§2)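 HEK293T cells were transfected with library plasmids carrying ribozyme switches linked to an mCherry reporter, or an eGFP reporter in some ligand experiments, at 4 µg per well of a 6-well plate, with any ligand added 1 h beforehand. After 72 h, total RNA was extracted with EDTA, reverse-transcribed, amplified, barcoded and sequenced. RNA level was defined as RNA reads over DNA reads, normalized to a spiked-in non-cleaving sequence or to the top-ranked sequences. That value was multiplied by 100 and converted to log10, the top set was 25 sequences, and only sequences with ≥100 DNA reads were retained.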

hypoxanthine [3] = variants of: B1; experiment: normalized RNA/DNA level without ligand (relative to sTRSVctl = 100) (log10 (% of sTRSVctl)); ligand: hypoxanthine (xanthine aptamer); higher = less ribozyme self-cleavage, higher mRNA level; conditions: HEK293T, reporter: mCherry (pCS4076), ligand present: no
In short: as §2

hypoxanthine [4] = variants of: B1; experiment: FACS-Seq fitted mean relative fluorescence mCherry/BFP with ligand (log10 relative fluorescence); ligand: hypoxanthine (xanthine aptamer); ligand concentration (+) FACS-Seq: 5 mM; higher = higher reporter protein expression; conditions: HEK293T, ligand present: yes
In short: as §1

Variant	FACS-Seq fitted mean (log10) (hypoxanthine [1])	normalized RNA/DNA level with ligand (log10) (hypoxanthine [2])	normalized RNA/DNA level without ligand (log10) (hypoxanthine [3])	FACS-Seq fitted mean (log10) (hypoxanthine [4])
GCUGUCACCGGUGUAUUACCCUAGUGGUCGACCGGUCUGAUGAGUCUUUAUGAAGACGAAACAGC [UUAUGA]	-0.0342 ± 0.015	1.91 ± 0.04	1.64 ± 0.039	-0.0882 ± 0.046
GCUGUCACCGGUGUAUUACCCUAGUGGUCGACCGGUCUGAUGAGUCUAUAUGGAGACGAAACAGC [AUAUGG]	-0.462 ± 0.062	1.802 ± 0.0067	1.374 ± 0.0022	-0.111 ± 0.04
GCUGUCACCGGUGUAUUACCCUAGUGGUCGACCGGUCUGAUGAGUCUCUAUGGAGACGAAACAGC [CUAUGG]	0.518 ± 0.013	1.888 ± 0.00026	1.6 ± 0.027	0.234 ± 0.17
GCUGUCACCGGUGUAUUACCCUAGUGGUCGACCGGUCUGAUGAGUCUGUAUGGAGACGAAACAGC [GUAUGG]	0.0518 ± 0.044	1.783 ± 0.01	1.331 ± 0.013	0.63 ± 0.026
GCUGUCACCGGUGUAUUACCCUAGUGGUCGACCGGUCUGAUGAGUCUUUAUGGAGACGAAACAGC [UUAUGG]	0.281 ± 0.094	1.89 ± 0.032	1.666 ± 0.015	0.317 ± 0.05
GCUGUCACCGGUGUAUUACCCUAGUGGUCGACCGGUCUGAUGAGUCUAUAUGUAGACGAAACAGC [AUAUGU]	0.416 ± 0.0064	1.886 ± 0.0057	1.68 ± 0.054	0.511 ± 0.015
GCUGUCACCGGUGUAUUACCCUAGUGGUCGACCGGUCUGAUGAGUCUGUAUGUAGACGAAACAGC [GUAUGU]	0.23 ± 0.082	1.899 ± 0.013	1.77 ± 0.017	0.398 ± 0.0075
GCUGUCACCGGUGUAUUACCCUAGUGGUCGACCGGUCUGAUGAGUCUCUAUUAAGACGAAACAGC [CUAUUA]	0.569 ± 0.023	1.942 ± 0.019	1.85 ± 0.054	0.484 ± 0.053
GCUGUCACCGGUGUAUUACCCUAGUGGUCGACCGGUCUGAUGAGUCUUUAUUAAGACGAAACAGC [UUAUUA]	0.289 ± 0.0048	1.96 ± 0.086	1.91 ± 0.062	0.398 ± 0.036
GCUGUCACCGGUGUAUUACCCUAGUGGUCGACCGGUCUGAUGAGUCUAUAUUCAGACGAAACAGC [AUAUUC]	0.242 ± 0.014	1.92 ± 0.042	1.88 ± 0.051	0.166 ± 0.071
GCUGUCACCGGUGUAUUACCCUAGUGGUCGACCGGUCUGAUGAGUCUCUAUUCAGACGAAACAGC [CUAUUC]	0.8316 ± 0.0023	2 ± 0.02	1.84 ± 0.055	0.762 ± 0.023
GCUGUCACCGGUGUAUUACCCUAGUGGUCGACCGGUCUGAUGAGUCUAUAUUGAGACGAAACAGC [AUAUUG]	0.2149 ± 0.0019	1.87 ± 0.053	1.53 ± 0.075	0.486 ± 0.011
GCUGUCACCGGUGUAUUACCCUAGUGGUCGACCGGUCUGAUGAGUCUCUAUUGAGACGAAACAGC [CUAUUG]	0.179 ± 0.031	1.95 ± 0.048	1.843 ± 0.0087	0.763 ± 0.041
GCUGUCACCGGUGUAUUACCCUAGUGGUCGACCGGUCUGAUGAGUCUGUAUUGAGACGAAACAGC [GUAUUG]	-0.148 ± 0.011	1.882 ± 0.011	1.45 ± 0.1	0.209 ± 0.0066
GCUGUCACCGGUGUAUUACCCUAGUGGUCGACCGGUCUGAUGAGUCUGUCAAAAGACGAAACAGC [GUCAAA]	0.456 ± 0.0096	1.91 ± 0.047	1.733 ± 0.0061	0.532 ± 0.0073
GCUGUCACCGGUGUAUUACCCUAGUGGUCGACCGGUCUGAUGAGUCUUUCAAAAGACGAAACAGC [UUCAAA]	0.11 ± 0.051	1.95 ± 0.026	1.802 ± 0.0086	0.0695 ± 0.15
GCUGUCACCGGUGUAUUACCCUAGUGGUCGACCGGUCUGAUGAGUCUAUCAAGAGACGAAACAGC [AUCAAG]	0.0695 ± 0.06	1.85 ± 0.043	1.5 ± 0.06	0.339 ± 0.047
GCUGUCACCGGUGUAUUACCCUAGUGGUCGACCGGUCUGAUGAGUCUGUCAAGAGACGAAACAGC [GUCAAG]	0.65 ± 0.074	1.85 ± 0.077	1.46 ± 0.07	0.667 ± 0.011
GCUGUCACCGGUGUAUUACCCUAGUGGUCGACCGGUCUGAUGAGUCUUUCAAGAGACGAAACAGC [UUCAAG]	0.352 ± 0.023	1.907 ± 0.0058	1.72 ± 0.056	0.545 ± 0.024
GCUGUCACCGGUGUAUUACCCUAGUGGUCGACCGGUCUGAUGAGUCUUUCAAUAGACGAAACAGC [UUCAAU]	-0.589 ± 0.025	1.937 ± 0.015	1.81 ± 0.024	-0.1336 ± 0.00015
GCUGUCACCGGUGUAUUACCCUAGUGGUCGACCGGUCUGAUGAGUCUUUCACAAGACGAAACAGC [UUCACA]	0.502 ± 0.065	1.9 ± 0.051	1.88 ± 0.05	0.58 ± 0.026

Source: the supplement of paper PMC6757056
